Key:
[1] = target: pre-existing anti-drug antibodies (ADA) present in human sera; test: pre-existing ADA ELISA, scFv coated, human sera unspiked vs spiked
[2] = target: T1, human a-PD-L1 Fc (Sino Biological, 10084-H02H, LC11NO2402) (human, UniProt Q9NZQ7 19-239); test: SPR, PD-L1 Fc immobilised, scFv analyte, 1:1 fit
T1 construct: Bought Fc fusion immobilised on the SPR chip; Printed as 'a-PD-L1 Fc' but used as the antigen (ligand) for the anti-PD-L1 scFvs; also called Human PD-L1; not shown: Fc part
T1 sequence (Q9NZQ7 19-239 limits assumed): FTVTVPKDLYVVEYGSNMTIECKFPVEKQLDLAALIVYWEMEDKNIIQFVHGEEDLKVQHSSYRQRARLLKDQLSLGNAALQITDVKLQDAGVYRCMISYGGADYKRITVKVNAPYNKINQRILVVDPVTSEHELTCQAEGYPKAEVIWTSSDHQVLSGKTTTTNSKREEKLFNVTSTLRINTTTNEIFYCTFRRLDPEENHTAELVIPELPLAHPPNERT
Experimental: The mutation variants were then injected at concentrations of 10 nM, 2 nM and 0.4 nM over the ligand-immobilized and reference spots. The wild type variants were used as a control, while an empty spot was used as reference.
After each cycle with analyte, the surface was regenerated with a 3M MgCl₂ solution, thereby allowing the next analyte cycle to have only free ligand available. Binding affinity KD was globally calculated by the Bruker SPR software based on the binding association (kₒₙ) and dissociation (Koff) rate, by fitting a 1:1 Langmuir model to the curves obtained by the cycles with the three different concentrations of the analyte.

Row | Binder | Mean No of serum samples >30% inhibition (30% CCP) with SCP (serum samples) [1] | No of serum samples >30% inhibition (30% CCP) without SCP (serum samples) [1] | Kd [2] | n-fold to wt [2]
1 | PRO2951 (scFv 37-20-B03-sc09.1_(T101R)) (scFv, PRO2230 variant; VH substitution, AHo numbering; also called PRO2230 T101R) scFv: DIQMTQSPASLSASVGDRVTITCQASQSIGTYLAWYQQKPGKPPKLLIYRAFILASGVPSRFSGSGSGTDFTLTISSLQPEDFATYYCQSNFYSDSTTIGPNAFGTGTKVTVLGGGGGSGGGGSGGGGSGGGGSEVQLVESGGGLVQPGGSLRLSCAASGFSFNSDYWIYWVRQAPGKGLEWIASIYGGSSGNTQYASWAQGRFTISRDNSKNTVYLQMNSLRAEDRAVYFCARGYVDYGGATDLWGQGTLVTVSS | 1 | 0 | 42 pM | 0.9 fold
2 | PRO3313 (scFv 37-20-B03-sc09.1_(T101S, T146R)) (scFv, PRO2230 variant; VH substitutions, AHo numbering; also called PRO2230 T101S-T146R) scFv: DIQMTQSPASLSASVGDRVTITCQASQSIGTYLAWYQQKPGKPPKLLIYRAFILASGVPSRFSGSGSGTDFTLTISSLQPEDFATYYCQSNFYSDSTTIGPNAFGTGTKVTVLGGGGGSGGGGSGGGGSGGGGSEVQLVESGGGLVQPGGSLRLSCAASGFSFNSDYWIYWVRQAPGKGLEWIASIYGGSSGNTQYASWAQGRFTISRDNSKNTVYLQMNSLRAEDSAVYFCARGYVDYGGATDLWGQGTLVRVSS | 1 | 5 | 14 pM | 0.3 fold
3 | PRO2952 (scFv 37-20-B03-sc09.1_(T101S)) (scFv, PRO2230 variant; VH substitution, AHo numbering; also called PRO2230 T101S) scFv: DIQMTQSPASLSASVGDRVTITCQASQSIGTYLAWYQQKPGKPPKLLIYRAFILASGVPSRFSGSGSGTDFTLTISSLQPEDFATYYCQSNFYSDSTTIGPNAFGTGTKVTVLGGGGGSGGGGSGGGGSGGGGSEVQLVESGGGLVQPGGSLRLSCAASGFSFNSDYWIYWVRQAPGKGLEWIASIYGGSSGNTQYASWAQGRFTISRDNSKNTVYLQMNSLRAEDSAVYFCARGYVDYGGATDLWGQGTLVTVSS | 5 | 8 | 36 pM | 0.7 fold
4 | PRO2986 (scFv 37-20-B03-sc09.1_(T146A)) (scFv, PRO2230 variant; VH substitution, AHo numbering; also called PRO2230 T146A) scFv: DIQMTQSPASLSASVGDRVTITCQASQSIGTYLAWYQQKPGKPPKLLIYRAFILASGVPSRFSGSGSGTDFTLTISSLQPEDFATYYCQSNFYSDSTTIGPNAFGTGTKVTVLGGGGGSGGGGSGGGGSGGGGSEVQLVESGGGLVQPGGSLRLSCAASGFSFNSDYWIYWVRQAPGKGLEWIASIYGGSSGNTQYASWAQGRFTISRDNSKNTVYLQMNSLRAEDTAVYFCARGYVDYGGATDLWGQGTLVAVSS | 8 | 2 | 69 pM | 1.4 fold
5 | PRO3310 (scFv 37-20-B03-sc09.1_(L12R, T101R, L144A, T146Q)) (scFv, PRO2230 variant; VH substitutions, AHo numbering; also called PRO2230 L12R-T101R-L144A-T146Q) scFv: DIQMTQSPASLSASVGDRVTITCQASQSIGTYLAWYQQKPGKPPKLLIYRAFILASGVPSRFSGSGSGTDFTLTISSLQPEDFATYYCQSNFYSDSTTIGPNAFGTGTKVTVLGGGGGSGGGGSGGGGSGGGGSEVQLVESGGGRVQPGGSLRLSCAASGFSFNSDYWIYWVRQAPGKGLEWIASIYGGSSGNTQYASWAQGRFTISRDNSKNTVYLQMNSLRAEDRAVYFCARGYVDYGGATDLWGQGTAVQVSS | 3 | 6 | 38 pM | 0.8 fold
6 | PRO2984 (scFv 37-20-B03-sc09.1_(L12S, V103T, L144T)) (scFv, VH substitutions, AHo numbering; also called PRO2230-L12S-V103T-L144T) scFv: DIQMTQSPASLSASVGDRVTITCQASQSIGTYLAWYQQKPGKPPKLLIYRAFILASGVPSRFSGSGSGTDFTLTISSLQPEDFATYYCQSNFYSDSTTIGPNAFGTGTKVTVLGGGGGSGGGGSGGGGSGGGGSEVQLVESGGGSVQPGGSLRLSCAASGFSFNSDYWIYWVRQAPGKGLEWIASIYGGSSGNTQYASWAQGRFTISRDNSKNTVYLQMNSLRAEDTATYFCARGYVDYGGATDLWGQGTTVTVSS | 5 | 5 | 36 pM | 0.7 fold
7 | PRO2988 (scFv 37-20-B03-sc09.1_(P48A)) (scFv, PRO2230 variant; VH substitution, AHo numbering; also called PRO2230 P48A) scFv: DIQMTQSPASLSASVGDRVTITCQASQSIGTYLAWYQQKPGKPPKLLIYRAFILASGVPSRFSGSGSGTDFTLTISSLQPEDFATYYCQSNFYSDSTTIGPNAFGTGTKVTVLGGGGGSGGGGSGGGGSGGGGSEVQLVESGGGLVQPGGSLRLSCAASGFSFNSDYWIYWVRQAAGKGLEWIASIYGGSSGNTQYASWAQGRFTISRDNSKNTVYLQMNSLRAEDTAVYFCARGYVDYGGATDLWGQGTLVTVSS | 3 | 7 | 34 pM | 0.7 fold

Further binders by falling Kd [2], results first:

Row | Mean No of serum samples >30% inhibition (30% CCP) with SCP (serum samples) [1] | No of serum samples >30% inhibition (30% CCP) without SCP (serum samples) [1] | Kd [2] | n-fold to wt [2] | Binder
8 | 7 | 10 | 48 pM | 1 fold | PRO3311 (scFv 37-20-B03-sc09.1_(L12A, T101Q, L144A, T146Q)) (scFv, PRO2230 variant; VH substitutions, AHo numbering; also called PRO2230 L12A-T101Q-L144A-T146Q) scFv: DIQMTQSPASLSASVGDRVTITCQASQSIGTYLAWYQQKPGKPPKLLIYRAFILASGVPSRFSGSGSGTDFTLTISSLQPEDFATYYCQSNFYSDSTTIGPNAFGTGTKVTVLGGGGGSGGGGSGGGGSGGGGSEVQLVESGGGAVQPGGSLRLSCAASGFSFNSDYWIYWVRQAPGKGLEWIASIYGGSSGNTQYASWAQGRFTISRDNSKNTVYLQMNSLRAEDQAVYFCARGYVDYGGATDLWGQGTAVQVSS
9 | 2 | 7 | 48 pM | 1 fold | PRO2987 (scFv 37-20-B03-sc09.1_(P15A)) (scFv, PRO2230 variant; VH substitution, AHo numbering; also called PRO2230 P15A) scFv: DIQMTQSPASLSASVGDRVTITCQASQSIGTYLAWYQQKPGKPPKLLIYRAFILASGVPSRFSGSGSGTDFTLTISSLQPEDFATYYCQSNFYSDSTTIGPNAFGTGTKVTVLGGGGGSGGGGSGGGGSGGGGSEVQLVESGGGLVQAGGSLRLSCAASGFSFNSDYWIYWVRQAPGKGLEWIASIYGGSSGNTQYASWAQGRFTISRDNSKNTVYLQMNSLRAEDTAVYFCARGYVDYGGATDLWGQGTLVTVSS
10 | 2 | 2 | 47 pM | 1 fold | PRO2985 (scFv 37-20-B03-sc09.1_(T101A)) (scFv, PRO2230 variant; VH substitution, AHo numbering; also called PRO2230 T101A) scFv: DIQMTQSPASLSASVGDRVTITCQASQSIGTYLAWYQQKPGKPPKLLIYRAFILASGVPSRFSGSGSGTDFTLTISSLQPEDFATYYCQSNFYSDSTTIGPNAFGTGTKVTVLGGGGGSGGGGSGGGGSGGGGSEVQLVESGGGLVQPGGSLRLSCAASGFSFNSDYWIYWVRQAPGKGLEWIASIYGGSSGNTQYASWAQGRFTISRDNSKNTVYLQMNSLRAEDAAVYFCARGYVDYGGATDLWGQGTLVTVSS
11 | 1 | 2 | 41 pM | 0.8 fold | PRO3312 (scFv 37-20-B03-sc09.1_(T101R, T146Q)) (scFv, PRO2230 variant; VH substitutions, AHo numbering; also called PRO2230 T101R-T146Q) scFv: DIQMTQSPASLSASVGDRVTITCQASQSIGTYLAWYQQKPGKPPKLLIYRAFILASGVPSRFSGSGSGTDFTLTISSLQPEDFATYYCQSNFYSDSTTIGPNAFGTGTKVTVLGGGGGSGGGGSGGGGSGGGGSEVQLVESGGGLVQPGGSLRLSCAASGFSFNSDYWIYWVRQAPGKGLEWIASIYGGSSGNTQYASWAQGRFTISRDNSKNTVYLQMNSLRAEDRAVYFCARGYVDYGGATDLWGQGTLVQVSS
12 | 2 | 7 | 36 pM | 0.7 fold | PRO3308 (scFv 37-20-B03-sc09.1_(L12A, T101S, L144K, T146Q)) (scFv, PRO2230 variant; VH substitutions, AHo numbering; also called PRO2230 L12A-T101S-L144K-T146Q) scFv: DIQMTQSPASLSASVGDRVTITCQASQSIGTYLAWYQQKPGKPPKLLIYRAFILASGVPSRFSGSGSGTDFTLTISSLQPEDFATYYCQSNFYSDSTTIGPNAFGTGTKVTVLGGGGGSGGGGSGGGGSGGGGSEVQLVESGGGAVQPGGSLRLSCAASGFSFNSDYWIYWVRQAPGKGLEWIASIYGGSSGNTQYASWAQGRFTISRDNSKNTVYLQMNSLRAEDSAVYFCARGYVDYGGATDLWGQGTKVQVSS
13 | 4 | 7 | 27 pM | 0.6 fold | PRO3307 (scFv 37-20-B03-sc09.1_(L12A, T101S, L144A, T146R)) (scFv, PRO2230 variant; VH substitutions, AHo numbering; also called PRO2230 L12A-T101S-L144A-T146R) scFv: DIQMTQSPASLSASVGDRVTITCQASQSIGTYLAWYQQKPGKPPKLLIYRAFILASGVPSRFSGSGSGTDFTLTISSLQPEDFATYYCQSNFYSDSTTIGPNAFGTGTKVTVLGGGGGSGGGGSGGGGSGGGGSEVQLVESGGGAVQPGGSLRLSCAASGFSFNSDYWIYWVRQAPGKGLEWIASIYGGSSGNTQYASWAQGRFTISRDNSKNTVYLQMNSLRAEDSAVYFCARGYVDYGGATDLWGQGTAVRVSS
14 | 1 | 4 | 26 pM | 0.5 fold | PRO3309 (scFv 37-20-B03-sc09.1_(L12R, T101S, L144A, T146Q)) (scFv, PRO2230 variant; VH substitutions, AHo numbering; also called PRO2230 L12R-T101S-L144A-T146Q) scFv: DIQMTQSPASLSASVGDRVTITCQASQSIGTYLAWYQQKPGKPPKLLIYRAFILASGVPSRFSGSGSGTDFTLTISSLQPEDFATYYCQSNFYSDSTTIGPNAFGTGTKVTVLGGGGGSGGGGSGGGGSGGGGSEVQLVESGGGRVQPGGSLRLSCAASGFSFNSDYWIYWVRQAPGKGLEWIASIYGGSSGNTQYASWAQGRFTISRDNSKNTVYLQMNSLRAEDSAVYFCARGYVDYGGATDLWGQGTAVQVSS
15 | 0 | 7 | 18 pM | 0.4 fold | PRO3306 (scFv 37-20-B03-sc09.1_(L12A, T101R, L144A, T146Q)) (scFv, PRO2230 variant; VH substitutions, AHo numbering; also called PRO2230 L12A-T101R-L144A-T146Q) scFv: DIQMTQSPASLSASVGDRVTITCQASQSIGTYLAWYQQKPGKPPKLLIYRAFILASGVPSRFSGSGSGTDFTLTISSLQPEDFATYYCQSNFYSDSTTIGPNAFGTGTKVTVLGGGGGSGGGGSGGGGSGGGGSEVQLVESGGGAVQPGGSLRLSCAASGFSFNSDYWIYWVRQAPGKGLEWIASIYGGSSGNTQYASWAQGRFTISRDNSKNTVYLQMNSLRAEDRAVYFCARGYVDYGGATDLWGQGTAVQVSS

Source: patent publication US20250382363A1 (NUMAB THERAPEUTICS, published 2025)
